Test results published in patent publication US20170233451A1.

Biological target: human PD-L1 on cells (IFN-gamma-induced SK-MEL-28 melanoma cells; CT26-Tg(hPD-L1)-delta(mPD-L1) cells and tumors) (human) (UniProt Q9NZQ7)
Assay: flow cytometry of a dissociated CT26 hPD-L1 positive tumor four hours after intraperitoneal injection of both labeled agents; same quadrant of the PD-L1 negative tumor: 3.97

Sequence of human PD-L1 on cells (IFN-gamma-induced SK-MEL-28 melanoma cells; CT26-Tg(hPD-L1)-delta(mPD-L1) cells and tumors) (human) (Q9NZQ7 19-290 limits assumed, stated change not applied): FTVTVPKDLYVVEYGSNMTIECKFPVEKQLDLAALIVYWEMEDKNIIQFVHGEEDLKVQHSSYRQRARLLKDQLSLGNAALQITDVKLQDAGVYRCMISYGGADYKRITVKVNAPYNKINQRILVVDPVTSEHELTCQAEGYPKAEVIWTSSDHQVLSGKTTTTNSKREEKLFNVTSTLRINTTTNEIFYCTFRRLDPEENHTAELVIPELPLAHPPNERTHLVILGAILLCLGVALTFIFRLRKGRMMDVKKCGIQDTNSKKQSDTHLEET

- % of cells in the quadrant Anti-hPD-L1 488 positive, HAC 594 negative (lower right): 2.22%
Substance: AlexaFluor488-labeled anti-PD-L1 antibody (clone 29E.2A3, BioLegend)
